Measurements: patent publication US20240279344A1 (CDR LIFE, published 2024)

What follows are binders tested against T1, HLA-A2/MAGE-A4 complex, recombinant (HLA-A*02:01 extracellular domain, human b2m, MAGE-A4 peptide 230-239 …) (human, UniProt P04439 25-299 at identity 0.94); P61769 21-119) (assay: phage display biopanning and screening).
T1 construct: also called MAGE-A4 pMHC; MAGE-A4/HLA-A2 complex

| Binder | binding result |
| --- | --- |
| M0864 scFv (scFv, Rabbit scFv identified by phage display) scFv: QSVKESGGGLVTPGTPLTLTCTVSGFSLSTYAISWVRQAPGKGLEWIGFIDTVDSAYYASWAKGRFTISKTSSTTVDLKMTSPTTEDTATYFCAKLRYGDYGDYTLWGQGTLVTVSSGGGGSGGGGSGGGGSGGGGASELVMTQTPSPVSGAVGGTVTIKCQASQNIYSYLAWYQQKPGQPPKLLIYKASTLASGVPSRVKGSGSGTEYTLTISGVQAADAATYYCQCTYYDSNTFGGGTEVVVK | binds |
| M0862 scFv (scFv, Rabbit scFv identified by phage display) scFv: PEQLMESGGGLVTPGGVLTLTCTASGFSFSSYGVNWVRQAPGKGLEWIGFIFGDGTTYYANWAKGRFTISKTSTTVDLKMTSPTTEDTATYFCARDGYGGYDYIINLWGQGTLVTVSSGGGGSGGGGSGGGGSGGGGASAQVLTQTPASVSAAVGGTVSISCQSSQSVVNNNWLAWYQQKPGQPPKLLIYKASTLESGVPSRFKGSGSGTQFTLTISGVQADDAATYYCLGEFSCSSADCHAFGGGTELEIL | binds |
| M0859 scFv (scFv, Rabbit scFv identified by phage display) scFv: QSVKESGGRLVTPGTPLTLTCTVSGFSLSNYAMSWVRQAPGKGLEYIGIVSSGGTTYYASWAKGRFTISKTSTTVDLKITSPTTEDTATYFCAKDLYYGPTTYSAFNLWGQGTLVTISSGGGGSGGGGSGGGGSGGGGASELVLTQPQSVSGSLGQTVSISCKRARDNIEDYYVHWYQQHPGKTPTIVIHKDDQRPSGVPDRFSGSIDSTSNSASLTITGLLAEDEADYFCQSFDNDASPVFGGGTQLTVTG | binds |
| M0858 scFv (scFv, Rabbit scFv identified by phage display) scFv: QSVEESGGRLVTPGTPLTLTCTVSGFSLSNYAMSWVRQAPGKGLEYIGIVSSGGTTYYASWAKGRFTISKTSTTVDLKITSPTTEDTATYFCAKDLYYGPTTYSAFNLWGQGTLVTVSSGGGGSGGGGSGGGGSGGGGASELVLTQPQSVSGSLGQTVSISCKRARNNIEDYYVHWYQQHPGRSPTIVIHKDDQRPSGVPDRFSGSIDSTSNSASLTITGLLAEDEADYFCQSFDNNANPVFGGGTQLTVTG | binds |
| M0860 scFv (scFv, Rabbit scFv identified by phage display) scFv: QSVKESGGRLVTPGTPLTLTCTVSGFSLSNYAMSWVRQAPGKGLEYIGIVSSGGTTYYASWAKGRFTISKTSTTVDLKITSPTTEDTATYFCAKDLYYGPTTYSAFNLWGQGTLVTISSGGGGSGGGGSGGGGSGGGGASELVLTQPQSVSGSLGQTVSISCKRARDNIEDYYVHWYQQYPGKTPTIVIYKDDQRPSGVPDRFSGSIDSTSNSASLTITGLLAEDEADYFCQSFDNNANVVFGGGTQLTVTG | binds |
| M0863 scFv (scFv, Rabbit scFv identified by phage display) scFv: PEQLMESGGGLVTPGGVLTLTCTASGFSFSSYGVNWVRQAPGKGLEWIGFIFGDGTTYYANWAKGRFTISKTSTTVDLKMTSPTTEDTATYFCARDGYGGYDYIINLWGQGTLVTVSSGGGGSGGGGSGGGGSGGGGASAQVLTQTPASVSAAVGGTVSISCQSSQSVVNNNWLAWYQQKPGQPPKLLIYKASTLESGVPSRFKGSGSGTQFTLTISGVQADDAATYYCQGAYSGNIYYNAFGGGTEVVVK | binds |
| M0861 scFv (scFv, Rabbit scFv identified by phage display) scFv: QSVKESGGRLVTPGTPLTLTCTVSGFSLSNYAMSWVRQAPGKGLEYIGIVSSGGTTYYASWAKGRFTISKTSTTVDLKITSPTTEDTATYFCAKDLYYGPTTYSAFNLWGQGTLVTISSGGGGSGGGGSGGGGSGGGGASELVLTQPASVQVNLGQTVSLTCTADTLSRSYASWYQLKPGQAPVLLIYRDTSRPSGVPDRFSGSSSGNTATLTISGAQAGDEGDYVCATSDGSGSNFQLFGGGTQLTVTG | binds |
| M0865 scFv (scFv, Rabbit scFv identified by phage display) scFv: PAALMESGGRLVTPGTPLTLTCTVSGIDLSTFAMTWVRQAPGKGLEWLGIINTGGSAYYTSWAKGRFTISRTSTTVDLKITSPTTEDTATYFCARGDWSSATDLWGQGTLVTISSGGGGSGGGGSGGGGSGGGGASDPDMTQTPSSVSAAVGGTVTINCQASQSVYDNKVLAWYRQKPGQPPKLLIYKASTLASGVPSRFKGRGSGTQFTLTISGVQADDAATYYCLGEFSCSSADCHAFGGGTELEIL | binds |
